Data on 79 sequences can be found in the supplement of paper PMC10126150.

For this data set, the system named is ATP. The experiment in a line: switch fluorescence ratio, 500 uM ATP over buffer (Cy3 cluster intensity, sum of 5 cycles each) (fold (ratio)); higher = stronger signal-on switching upon ATP binding; sequences stand for … in TCGTCGGCAGCGTCAGATGTGTATAAGAGACAGTTTTTTTTTTTTTTTTTTTTTTTTT…TC. Conditions: aptamer strand: ATP DNA aptamer (quencher-CACCTGGGGGAGTATTGCGGAGGAAGG + anchor), 100 nM annealed; ATP concentration: 500 uM. In outline: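 Clusters with intensities outside 100-1000 RFU were excluded. The remaining Cy3-labelled switching-strand clusters on a modified Illumina MiSeq flow-cell had been annealed to 100 nM quencher-labelled ATP aptamer and imaged in selection buffer, then after 15 min with 500 uM ATP at 22 °C, for five cycles separated by NaOH stripping and re-annealing. The fluorescence ratio, averaged per switch-domain sequence, is each cluster's summed target-cycle Cy3 intensity over its summed buffer-cycle Cy3 intensity.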

± gives the standard deviation of the averaged measurements.
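Also: ATP exposure 15 min at 22 °C before imaging.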

Take TTTCCTTTGT: the switch fluorescence ratio worked out at 1.01 ± 0.049.
With TTTCCTTTT the figure was 1.014 ± 0.0083; with TTTCGAACAT, 1.03 ± 0.068.
Take TTTCGACCGA: the switch fluorescence ratio came to 1.03 ± 0.033.
TTTCGACCTG: the switch fluorescence ratio came to 0.9871 ± 0.0046.
With TTTCGACGCT the figure was 2.18 ± 0.85; with TTTCGAGAAC, 0.9873 ± 0.0066; with TTTCGAGGAT, 1.006 ± 0.0044.
Take TTTCGAGGGA: the switch fluorescence ratio worked out at 1 ± 0.025.
Consider TTTCGATTAC, for which the switch fluorescence ratio was determined as 1.07 ± 0.018.
The figure for TTTCGATTGC is 1.004 ± 0.01; for TTTCGATTTG it is 1.02 ± 0.012; for TTTCGCAGAA it is 1.1 ± 0.1.
Regarding TTTCGCCATG, the switch fluorescence ratio worked out at 0.995 ± 0.026.
With TTTCGCGACA the figure was 1.34 ± 0.5; with TTTCGCGGGT, 1.05 ± 0.067; with TTTCGCTATG, 1.04 ± 0.024.
In the case of TTTCGCTCGC, the switch fluorescence ratio amounted to 1.13 ± 0.02.
As for TTTCGCTCTT, the switch fluorescence ratio was found to be 1.12 ± 0.25.
On to TTTCGGAAGC, for which the switch fluorescence ratio is 1.005 ± 0.0015.
Consider TTTCGGACAA, for which the switch fluorescence ratio is 1.46 ± 0.5.
In the case of TTTCGGGCGC, the switch fluorescence ratio amounted to 1.05 ± 0.047.
TTTCGTAAGA: the switch fluorescence ratio came to 0.995 ± 0.016.
Regarding TTTCGTAGAG, the switch fluorescence ratio worked out at 1 ± 0.011.
TTTCGTAGGT: the switch fluorescence ratio is 1.02 ± 0.022.
The figure for TTTCGTCGGC is 1.048 ± 0.0018; for TTTCGTGACT it is 1.02 ± 0.035.
With TTTCGTGGAC the figure was 1.08 ± 0.015; with TTTCGTGGTG, 0.997 ± 0.031.
The figure for TTTCGTTTAC is 1.272 ± 0.0071; for TTTCGTTTGG it is 0.981 ± 0.042.
Regarding TTTCGTTTTC, the switch fluorescence ratio worked out at 1.08 ± 0.1.
The figure for TTTCGTTTTG is 0.998 ± 0.016; for TTTCGTTTTT it is 0.991 ± 0.038; for TTTCTAATAT it is 1 ± 0.014.
With TTTCTACGCG the figure was 1.01 ± 0.034; with TTTCTAGGTC, 1.015 ± 0.0048; with TTTCTAGTGA, 0.991 ± 0.047.
With TTTCTATGGG the figure was 1.03 ± 0.033.
With TTTCTCAGTA, the switch fluorescence ratio came to 1.03 ± 0.041.
With TTTCTCAGTC the figure was 1 ± 0.039.
With TTTCTCCCTT, the switch fluorescence ratio was 1.19 ± 0.13.
With TTTCTCCGTT, the switch fluorescence ratio was 1.44 ± 0.55.
For TTTCTCGAAT, the switch fluorescence ratio is 1 ± 0.029.
On to TTTCTCGTCG, for which the switch fluorescence ratio was determined as 1 ± 0.014.
With TTTCTCGTCT the figure was 0.988 ± 0.011; with TTTCTCGTTC, 1.15 ± 0.21.
With TTTCTCTGGT the figure was 0.993 ± 0.045.
In the case of TTTCTGGCTG, the switch fluorescence ratio worked out at 1.025 ± 0.0043.
Turning to TTTCTGTGAT, the switch fluorescence ratio came out at 1.004 ± 0.003.
With TTTCTGTTTG the figure was 1.01 ± 0.05; with TTTCTTGGGG, 0.979 ± 0.018; with TTTCTTGTAT, 1.02 ± 0.016.
Turning to TTTCTTGTCA, the switch fluorescence ratio came to 0.996 ± 0.059.
The figure for TTTCTTTAAG is 0.985 ± 0.04.
With TTTCTTTCGT, the switch fluorescence ratio is 1.12 ± 0.16.
The figure for TTTGAAAATG is 1.01 ± 0.035.
Turning to TTTGAAAGGA, the switch fluorescence ratio turned out to be 1.01 ± 0.032.
As to TTTGAACGTG, the switch fluorescence ratio came to 0.969 ± 0.017.
With TTTGAACTTT the figure was 0.991 ± 0.033; with TTTGAAGAAA, 1.06 ± 0.033; with TTTGAAGAGT, 1.04 ± 0.017.
Turning to TTTGAAGGAC, the switch fluorescence ratio was 0.992 ± 0.044.
Consider TTTGAAGGGA, for which the switch fluorescence ratio came out at 0.996 ± 0.042.
With TTTGAAGTGT the figure was 0.997 ± 0.02; with TTTGAATCG, 1.01 ± 0.021.
With TTTGAATTCA the figure was 1.19 ± 0.22; with TTTGACAGTG, 0.966 ± 0.071; with TTTGACCAGG, 1.02 ± 0.045.
With TTTGACCGTT the figure was 0.988 ± 0.035; with TTTGACGG, 0.972 ± 0.023.
As for TTTGACGGAA, the switch fluorescence ratio was 1.27 ± 0.28.
TTTGACGTTT: the switch fluorescence ratio is 1.02 ± 0.059.
The figure for TTTGACTGGT is 0.984 ± 0.027; for TTTGACTTGA it is 0.984 ± 0.048.
For TTTGAGAAGA, the switch fluorescence ratio was determined as 1.02 ± 0.012.
Take TTTGAGACAG: the switch fluorescence ratio came to 0.994 ± 0.026.
Take TTTGAGAGTA: the switch fluorescence ratio came to 0.96 ± 0.028.
With TTTGAGCATT the figure was 1.04 ± 0.043.
